B1: polyhistidine-tagged full-length human 5MP1 (natural protein, UniProt Q9Y6E2 1-419, looked up)
chain: MNKHQKPVLTGQRFKTRKRDEKEKFEPTVFRDTLVQGLNEAGDDLEAVAKFLDSTGSRLDYRRYADTLFDILVAGSMLAPGGTRIDDGDKTKMTNHCVFSANEDHETIRNYAQVFNKLIRRYKYLEKAFEDEMKKLLLFLKAFSETEQTKLAMLSGILLGNGTLPATILTSLFTDSLVKEGIAASFAVKLFKAWMAEKDANSVTSSLRKANLDKRLLELFPVNRQSVDHFAKYFTDAGLKELSDFLRVQQSLGTRKELQKELQERLSQECPIKEVVLYVKEEMKRNDLPETAVIGLLWTCIMNAVEWNKKEELVAEQALKHLKQYAPLLAVFSSQGQSELILLQKVQEYCYDNIHFMKAFQKIVVLFYKADVLSEEAILKWYKEAHVAKGKSVFLDQMKKFVEWLQNAEEESESEGEEN
notes: human eIF5-mimic protein 1 (5MP1, BZW2), full length; Preparation of the construct is described in the Supplementary file; also called BZW2; eIF5-mimic protein 1
B2: human eIF2β 53–136 (domain or fragment, UniProt P20042 53-136, looked up)
chain: DLEADEEDTRKKDASDDLDDLNFFNQKKKKKKTKKIFDIDEAEEGVKDLKIESDVQEPTEPEDDLDIMLGNKKKKKKNVKFPDE
notes: human eIF2 beta subunit, residues 53-136, carrying two K-boxes; also called eIF2β_(53–135)
B3: polyhistidine-tagged human 5MP1 C-terminal domain (aa. 245–419) (domain or fragment, UniProt Q9Y6E2 245-419, looked up)
chain: FLRVQQSLGTRKELQKELQERLSQECPIKEVVLYVKEEMKRNDLPETAVIGLLWTCIMNAVEWNKKEELVAEQALKHLKQYAPLLAVFSSQGQSELILLQKVQEYCYDNIHFMKAFQKIVVLFYKADVLSEEAILKWYKEAHVAKGKSVFLDQMKKFVEWLQNAEEESESEGEEN
notes: human eIF5-mimic protein 1 (5MP1, BZW2), CTD, aa; 245-419; Preparation of the construct is described in the Supplementary file; also called 5MP1-CTD; CTD

What was measured:
Assay in all cases: ITC; a solution of eIF2β 53–136 injected with human 5MP1 constructs; performed as described previously (16)
Conditions in all cases: both partners purified
[1] = target: B2
[2] = target: B3
[3] = target: B1

| Binder | stoichiometry N [1] | Kd [2] [µM] | Kd [3] [µM] |
| --- | --- | --- | --- |
| B1 | 1 |  |  |
| B2 |  | ~5 | ~2 |
| B3 | 0.5 |  |  |

Source: article PMC4176352, “Essential role of eIF5-mimic protein in animal development is linked to control of ATF4 expression” (Nucleic Acids Research, 2014)
